Measured values published in article PMC10791742 (Nature Communications, 2024).
Changes are numbered by the printed parent chain.

B1: E02(Fab) (Fab, V domains shown)
VH: QVQLLESGGGLVQPGRSLRLSCAASGFTFSSYGLHWVRQAPGKGLEWVAVISYDGSNKYYADSVKGRFTISRDNSKNTLYLQMNSLRAEDTAVYYCASTLQQLDAFDIWGQGTLVTVSS
VL: NFMLTQPHSVSESPGKTVTISCTRSSGSIASNYVQWYQQRPGTSPTIMIYEDNQRPSGVPDRFSGAIDSSSNSASLTISGLKTEDEADYYCQSYDSSSVVFGGGTKVTVL
notes: also called TPL0039_05_E02
B2: E02(LALA + YTE) human IgG1 (antibody, V domains shown)
VH: B1 VH
VL: B1 VL
notes: also called TPL0039_05_E02
B3: TPL0039_05_G08 IgG1 (LALA + YTE) (antibody, V domains shown)
VH: EVQLVESGGGVVQPGRSLRLSCAASGFTFSSYGMHWVRQAPGKGLEWVAVISYDGSNKYYADSVKGRFTISRDNSKNTLYLQMNSLRAEDTAVYYCARTNYDSGDAFDIWGQGTLVTVSS
VL: B1 VL with T43S, I47T, M48V, A66S, S98T, V107L
notes: also called G08(LALA + YTE); copies: 2 + 2
B4: TPL0039_05_F04 IgG1 (LALA + YTE) (antibody, V domains shown)
VH: QVQLVESGGGVVQPGRSPRLSCAASGFTFSSYGMHWVRQAPGKGLEWVAVISYDGSNKYYADSVKGRFTISRDNSKNTLYLQMNSLRAEDTAVYYCAKDLEYSSSSWGQGTLVTVSS
VL: B1 VL with Y37F, T43S, I47T, M48V, N53D, A66S, D88T, Y90F, S98T
notes: also called F04(LALA + YTE); copies: 2 + 2
B5: TPL0039_05_E02 Fab (Fab, V domains shown)
VH: B1 VH
VL: B1 VL
notes: also called Fab E02; source: Expi293F, transient expression, purified (anti-CH1 resin, desalted into PBS)
B6: TPL0039_05_A03 IgG1 (LALA + YTE) (antibody, V domains shown)
VH: B1 VH with L5V, V12A, Q13K, A24V, L34M, L114M
VL: B1 VL with V18I, T43S, S44V, I47P, M48V, N53D, Q54R, A66S, V107I
notes: also called A03(LALA + YTE); copies: 2 + 2
B7: TPL0039_05_E02 IgG1 (LALA + YTE) (antibody, V domains shown)
VH: B1 VH
VL: B1 VL
notes: also called E02(LALA + YTE); copies: 2 + 2
B8: TPL0039_05_B04 IgG1 (LALA + YTE) (antibody, V domains shown)
VH: EVQLLESGGGVVQPGRSLRLSCAASGFTFSSYGMHWVRQAPGKGLEWVAVISYDGSNKYYADSVKGRFTISRDNSKNTLYLQMNSLRAEDTAVYYCARVGENEAFDIWGQGTMVTVSS
VL: B1 VL with S31R, T43S, S44A, I47T, M48V, A66S, S98T, V107L
notes: also called B04(LALA + YTE); copies: 2 + 2
B9: TPL0039_05_B12 IgG1 (LALA + YTE) (antibody, V domains shown)
VH: B8 VH with L5V, R98G, V99W, G100T, N102G, E103D, M113L
VL: B1 VL with T43S, S44A, T46S, I47T, M48V, Q54R, A66S, S70A, V107I
notes: also called B12(LALA + YTE); copies: 2 + 2

Target: T1, myotoxin II from Bothrops asper (Bothrops asper, UniProt P24605)
T1 construct: also called Mt; Lys49 PLA2-like toxin
Assay: BLI; […]) biosensors; Fab or IgG at 0, 1, 10 and 100 nM; 600 s association, 600 s dissociation; […]; 1:1 binding model, […]
Details: both partners purified
T1 sequence (P24605 17-137): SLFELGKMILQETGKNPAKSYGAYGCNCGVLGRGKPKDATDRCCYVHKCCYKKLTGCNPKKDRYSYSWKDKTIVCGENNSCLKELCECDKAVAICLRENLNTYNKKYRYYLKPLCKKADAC

| Binder | Kd [nM] |
| --- | --- |
| B1 | 2.4 |
| B2 | < 0.001 |

Target: T2, myotoxin II from Bothrops asper (Bothrops asper, UniProt P24605)
T2 construct: also called Mt; M2; source: purified from Bothrops asper venom (CM-Sephadex C25, RP-HPLC), biotinylated
Assay: BLI; […]) biosensors ([…] (0, 1, 10, 100 nM; […]
Details: both partners purified
T2 sequence (P24605 17-137): as above

| Binder | Kd [nM] | koff [s⁻¹] | kon [M⁻¹ s⁻¹] |
| --- | --- | --- | --- |
| B3 | < 0.001 | < 1e-07 | 245000 |
| B4 | 0.0181 | 1.31e-05 | 723000 |
| B5 |  | 0.000872 | 360000 |
| B6 | < 0.001 | < 1e-07 | 648000 |
| B7 |  | < 1e-07 | 491000 |
| B8 | 0.0758 | 6.53e-05 | 861000 |
| B9 | < 0.001 | < 1e-07 | 685000 |
